Measured values: article PMC5626551

Experiments:
14-3-3ε [1] = target: 14-3-3ε (UniProt P92177); assay: MBP-14-3-3ε pull-down, anti-pS96 blot; settings: reference: unphosphorylated Ncd tail (control not described in text); sites S96
14-3-3ε [2] = target: 14-3-3ε (UniProt P92177); assay: MBP-14-3-3ε amylose pull-down of purified tail; settings: reference: Ncd tail without kinase; sites S96
14-3-3ε [3] = target: 14-3-3ε (UniProt P92177); assay: GST-14-3-3ε pull-down, anti-GFP blot; settings: reference: wild type Ncd-GFP; sites S96

## Ncd (kinesin-14) tail, 58-192 (from UniProt P20480) Ncd tail after PKD2 and cold ATP
14-3-3ε [1]
  binding against the reference: stronger

## Ncd (kinesin-14) tail, 58-192 (from UniProt P20480) PKD2-phosphorylated Ncd tail
14-3-3ε [2]
  binding against the reference: stronger

## Ncd (kinesin-14) (from UniProt P20480) S96A
14-3-3ε [3]
  binding against the reference: weaker
